This series is described as follows: protein stability index of a GFP-peptide fusion (yeast GPS) (PSI 1-4); higher = more stable; sorted into four equal gates, so the index is relative within each strain. In a few lines:
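Tiled yeast protein peptides of 17 residues were each joined downstream of GFP, on plasmids that also express Cherry. The pooled library was maintained in yeast, and mid-log cultures in leucine-free medium were sorted into four equal gates on the GFP/Cherry ratio. Plasmids from every gate were amplified by PCR and sequenced on Illumina, with barcodes linking reads to strains. The protein stability index of a peptide is its gate-number-weighted read frequency summed over the gates.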

± gives the uncertainty stated by the source.

Consider GIRGKLVTIEGALIHKA [SMC1], for which the protein stability index was found to be 3.33 ± 0.2 (doa10∆), 2.95 ± 0.17 (pdr5∆) and 2.88 ± 0.13 (san1∆).
On to NNNETSKPAFSFGAKSD [YJL041W/NSP1], for which the protein stability index came out at 2.93 ± 0.11 (doa10∆), 3.1 ± 0.083 (pdr5∆), 3.15 ± 0.067 (san1∆) and 3.61 ± 0.29 (ubr1∆).
For DGKLEPSTRSNFILEVF [YJL039C/NUP192] the same measures were 1.63 ± 0.081, 1.61 ± 0.067, 1.92 ± 0.14 and 1.33 ± 0.069.
On to MGLGKTLQTISFLGYLR [ISW2], for which the protein stability index is 2.45 ± 0.044 (doa10∆), 2.06 ± 0.054 (pdr5∆), 1.67 ± 0.087 (san1∆) and 2.13 ± 0.056 (ubr1∆).
The like results for IYISNLVRSIIAFDDLI [RPN8] were, in that order, 1.42 ± 0.066, 1.36 ± 0.11, 1.17 ± 0.23 and 1.27 ± 0.27.
The like results for IGIAGAHRVRDLMDEEL [SKI6] were, in that order, 3.38 ± 0.13, 3.36 ± 0.11, 2.94 ± 0.088 and 3.07 ± 0.13.
For HNGAPHHAIEEAESLLQ [RPO21] the same measures were 3.07 ± 0.12, 3.39 ± 0.18, 2.66 ± 0.29 and 3 ± 0.088.
For the sequence NAKDKERLQLLEDVVGA [SMC3], the protein stability index was found to be 3.32 ± 0.19 (doa10∆), 3.38 ± 0.13 (pdr5∆), 3.01 ± 0.071 (san1∆) and 3.21 ± 0.11 (ubr1∆).
For VTKDLKLRREDEIIVYA [REC8], the protein stability index by setting is: (doa10∆) 2.8 ± 0.069; (pdr5∆) 2.73 ± 0.05; (san1∆) 3.18 ± 0.056; (ubr1∆) 2.96 ± 0.044.
The sequence ILGKNFDSVIVENLTVA [SMC1] yielded a protein stability index (doa10∆) of 2.48 ± 0.08, a protein stability index (pdr5∆) of 2.15 ± 0.083, a protein stability index (san1∆) of 2.11 ± 0.075 and a protein stability index (ubr1∆) of 2.19 ± 0.054.
Take PSLEKSSFTFGSTTIEK [YLR335W/NUP2]: the protein stability index was found to be 2.17 ± 0.058 (doa10∆), 2.65 ± 0.086 (pdr5∆), 1.66 ± 0.15 (san1∆) and 2.01 ± 0.056 (ubr1∆).
EREQPQENKNIDDENIT [SRB4]: the protein stability index (doa10∆) is 3.5 ± 0.055, the protein stability index (pdr5∆) was found to be 3.19 ± 0.071, the protein stability index (san1∆) worked out at 3.07 ± 0.051 and the protein stability index (ubr1∆) came out at 3.65 ± 0.084.
For VGVGKLNKLYGGAKSRG [RPS19A] the same measures were 3.29 ± 0.066, 3.39 ± 0.1, 3.2 ± 0.047 and 3.58 ± 0.11.
Turning to MRRNSKILNIIKCSQSS [POP5], the protein stability index reads like this: (doa10∆) 1.92 ± 0.049; (pdr5∆) 2.27 ± 0.082; (san1∆) 2.1 ± 0.073; (ubr1∆) 2.21 ± 0.046.
Turning to FDISMADLSSSEEEEDE [SSN2], the protein stability index by setting is: (doa10∆) 3.14 ± 0.079; (pdr5∆) 3.13 ± 0.077; (san1∆) 3.11 ± 0.1; (ubr1∆) 2.45 ± 0.063.
For DNEEASVKLDLQDDEDH [BRN1] the same measures were 2.99 ± 0.1, 3.45 ± 0.084, 3.05 ± 0.071 and 3.35 ± 0.097.
Regarding EFLKWTPNVNVLVLHGD [ISW2], the protein stability index reads like this: (doa10∆) 1.69 ± 0.064; (pdr5∆) 1.69 ± 0.06; (san1∆) 1.53 ± 0.12; (ubr1∆) 1.84 ± 0.082.
For the sequence DDDILIIRPILGKVRFA [SRB4], the protein stability index is 1.51 ± 0.056 (doa10∆), 1.66 ± 0.092 (pdr5∆), 1.93 ± 0.15 (san1∆) and 2.56 ± 0.05 (ubr1∆).
The like results for SSPSHIELVVTEKEEAV [RPL17A] were, in that order, 2.08 ± 0.051, 2.74 ± 0.045, 2.3 ± 0.059 and 2.08 ± 0.039.
With FQITLSSDDLQNCWSLI [SSN8], the protein stability index runs as follows: (doa10∆) 2.11 ± 0.049; (pdr5∆) 2.33 ± 0.063; (san1∆) 2.22 ± 0.062; (ubr1∆) 1.91 ± 0.045.
For KNVLANSIWGSSLRKNA [ITC1] the same measures were 1.49 ± 0.057, 1.89 ± 0.05, 1.82 ± 0.13 and 1.45 ± 0.042.
Take YMQRTVEEAHDFNMKLA [RPB2]: the protein stability index was found to be 3.09 ± 0.098 (doa10∆), 3.04 ± 0.1 (pdr5∆), 3.02 ± 0.075 (san1∆) and 2.99 ± 0.062 (ubr1∆).
The like results for KIAKRRQVYKPVLDNPF [POP3] were, in that order, 1.92 ± 0.077, 2.33 ± 0.082, 1.99 ± 0.11 and 2.08 ± 0.066.
On to AAPAGVAGGVAGGEAGE [RPP1A], for which the protein stability index runs as follows: (doa10∆) 1.91 ± 0.16; (pdr5∆) 1.8 ± 0.18; (san1∆) 1.66 ± 0.28.
Consider KPQRTNTLRMKHGTYDK [RPB2], for which the protein stability index came out at 2.74 ± 0.081 (doa10∆), 2.85 ± 0.061 (pdr5∆), 2.84 ± 0.062 (san1∆) and 2.88 ± 0.044 (ubr1∆).
The like results for NVNETMSRSLANGIINV [SMC3] were, in that order, 2.75 ± 0.074, 2.76 ± 0.061, 2.96 ± 0.081 and 2.73 ± 0.057.
As for SSSPLAMSETLSKVSLL [PRE8], the protein stability index runs as follows: (doa10∆) 2.53 ± 0.071; (pdr5∆) 2.83 ± 0.084; (san1∆) 2.67 ± 0.1; (ubr1∆) 2.32 ± 0.059.
As to AAFKDIAKRQFKEILTV [RRP40], the protein stability index runs as follows: (doa10∆) 2.27 ± 0.051; (pdr5∆) 2.54 ± 0.062; (san1∆) 2.58 ± 0.062; (ubr1∆) 2.55 ± 0.05.
The like results for DSSTTSSNSQQSTPQPD [ITC1] were, in that order, 3.04 ± 0.046, 2.85 ± 0.048, 2.69 ± 0.044 and 2.95 ± 0.038.
For TGKERSKKRKLNSLTNL [SNM1] the same measures were 2.41 ± 0.11, 3.04 ± 0.093, 2.89 ± 0.075 and 2.67 ± 0.13.
As for AIPLQQVLSQSADPSLL [SWI1], the protein stability index worked out at 2.86 ± 0.22 (doa10∆), 2.5 ± 0.13 (pdr5∆) and 3.06 ± 0.17 (ubr1∆).
Turning to RTLLTEEIEPKLEKLRN [SMC2], the protein stability index is, setting by setting: (doa10∆) 3.02 ± 0.074; (pdr5∆) 3 ± 0.068; (san1∆) 3.18 ± 0.042; (ubr1∆) 3.21 ± 0.054.
For the sequence DSSLQPEYFESPLQSSK [YMR129W/POM152], the protein stability index (doa10∆) came to 3.19 ± 0.2, the protein stability index (pdr5∆) amounted to 2.98 ± 0.12 and the protein stability index (ubr1∆) is 2.56 ± 0.13.
For the sequence TEGEPKKKRGFLGLFGR [SRP68], the protein stability index (doa10∆) was 3.17 ± 0.094, the protein stability index (pdr5∆) worked out at 3.46 ± 0.093, the protein stability index (san1∆) came out at 2.92 ± 0.068 and the protein stability index (ubr1∆) came out at 3.01 ± 0.06.
The like results for TFKSVSKYGMLLLRCDD [POP3] were, in that order, 1.89 ± 0.058, 2.01 ± 0.067, 1.96 ± 0.12 and 1.72 ± 0.068.
Sequence INQKALRKIQALRDVKN [GAL11] registered a protein stability index (pdr5∆) of 1.26 ± 0.25.
With KSKILRKVVFPFQLDVA [UBP6], the protein stability index reads like this: (doa10∆) 2.23 ± 0.09; (pdr5∆) 2.39 ± 0.089; (san1∆) 2.65 ± 0.11; (ubr1∆) 2.44 ± 0.057.
For LNWFRTTNMNVNNCIWA [RGR1] the same measures were 2.22 ± 0.057, 1.34 ± 0.045, 1.15 ± 0.12 and 1.28 ± 0.036.
